Experimental data from paper PMC11853100.

Molecular target: Streptococcus pneumoniae pneumolysin, recombinant (Streptococcus pneumoniae strain R6) (UniProt Q04IN8)
Assay: ITC; chaperone in the syringe, Ply in the sample cell; 20 mM MES, 100 mM NaCl, 1 mM beta-mercaptoethanol, 10% glycerol, pH 6.5, 25 C; independent binding model

Work on “Streptococcus pneumoniae SlrA (from UniProt Q8DQG5 19-267) (enzyme)” yielded a dH of -35.6 kcal/mol and a stoichiometry N of 0.84.
